Changes are numbered by the printed parent chain. Numbers in names are those of the source.
T1: TAMRA-labeled α-synuclein peptide
T1 chain: GYQDYEPEA

B1: N2.17 VHH F100fS (protein)
chain: QGQLVESGGGSVQAGGSLRLSCAASGIDSSSYCMGWFRQRPGKEREGVARINGWGGVKTAYADSVKDRFTISRDNAENTVYLQMNSLKPEDTAIYYCAAKSSPGYCGGTWSNFGYWGQGTQVTVSS
B2: N2.17 VHH T100dS (protein)
chain: B1 chain with T109S, S111F
B3: N2.17 VHH W52bL (protein)
chain: B1 chain with W54L, S111F
B4: N2.17 VHH S96F (protein)
chain: B1 chain with S101F, S111F
B5: N2.12 VHH S96F (protein)
chain: B1 chain with A49G, G55R, V57I, S101F
B6: N2.12 VHH W52bL (protein)
chain: B1 chain with A49G, W54L, G55R, V57I
B7: N2.12 VHH R53G (protein)
chain: B1 chain with A49G, V57I
B8: N2.12 VHH T100dS (protein)
chain: B1 chain with A49G, G55R, V57I, T109S
B9: N2.12 VHH G49A (protein)
chain: B1 chain with G55R, V57I

Molecular target: T1, TAMRA-labeled α-synuclein peptide
Assay: fluorescence polarization
Conditions: chain shown with the change;; parent: est. 8.6 x10^7 M^-1; read off a plot

| Ka | Binder |
| --- | --- |
| 9.6 x10^7 M^-1 | B1 |
| 3.8 x10^7 M^-1 | B2 |
| 3.3 x10^7 M^-1 | B3 |
| 1.6 x10^7 M^-1 | B4 |

Same assay, conditions: chain shown with the change;; parent: est. 13 x10^7 M^-1; read off a plot

| Ka | Binder |
| --- | --- |
| 6.7 x10^7 M^-1 | B5 |
| 6.2 x10^7 M^-1 | B6 |
| 7.1 x10^7 M^-1 | B7 |
| 8.5 x10^7 M^-1 | B8 |
| 13 x10^7 M^-1 | B9 |
